From paper PMC4772727
Where two headings read alike, the source gives them in different places.

T1: GST-p52 (WT);GST-ETS1 (Homo sapiens;Homo sapiens, UniProt Q00653;P14921 1-454;1-441, |)
T1 sequence 1: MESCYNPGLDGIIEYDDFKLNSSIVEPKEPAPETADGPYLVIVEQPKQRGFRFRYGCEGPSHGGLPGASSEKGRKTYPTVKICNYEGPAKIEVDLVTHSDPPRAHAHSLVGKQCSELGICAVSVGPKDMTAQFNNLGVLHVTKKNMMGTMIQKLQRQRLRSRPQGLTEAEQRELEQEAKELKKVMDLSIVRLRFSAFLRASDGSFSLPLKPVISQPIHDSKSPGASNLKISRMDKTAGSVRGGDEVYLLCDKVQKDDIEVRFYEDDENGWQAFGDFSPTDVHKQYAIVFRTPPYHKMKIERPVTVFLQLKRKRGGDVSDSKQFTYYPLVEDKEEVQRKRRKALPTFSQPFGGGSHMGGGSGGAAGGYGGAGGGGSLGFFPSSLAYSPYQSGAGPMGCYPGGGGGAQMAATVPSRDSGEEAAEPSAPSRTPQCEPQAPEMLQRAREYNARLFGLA
T1 sequence 2: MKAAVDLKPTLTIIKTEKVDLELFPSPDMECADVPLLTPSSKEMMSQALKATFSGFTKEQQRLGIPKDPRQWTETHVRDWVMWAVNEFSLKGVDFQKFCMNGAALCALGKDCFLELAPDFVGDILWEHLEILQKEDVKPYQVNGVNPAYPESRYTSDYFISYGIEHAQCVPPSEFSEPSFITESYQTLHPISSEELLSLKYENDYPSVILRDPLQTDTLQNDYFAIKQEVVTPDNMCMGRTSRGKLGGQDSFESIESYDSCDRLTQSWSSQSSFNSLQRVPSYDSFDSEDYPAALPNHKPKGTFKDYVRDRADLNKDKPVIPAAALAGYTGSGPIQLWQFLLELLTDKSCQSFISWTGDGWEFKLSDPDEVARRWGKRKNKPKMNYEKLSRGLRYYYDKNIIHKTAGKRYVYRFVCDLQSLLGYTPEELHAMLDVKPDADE

T2: GST-ETS1 (Homo sapiens, UniProt P14921 1-441)
T2 sequence: T1 sequence 2

T3: GST-p52 (WT) (Homo sapiens, UniProt Q00653 1-454)
T3 sequence: T1 sequence 1

B1: C250T TERT promoter probe (dsDNA)
DNA 1: GTCCCGACCCCTTCCGGGTCCCCGGC
DNA 2: GCCGGGGACCCGGAAGGGGTCGGGAC
B2: WT TERT promoter probe (dsDNA)
DNA 1: GTCCCGACCCCTCCCGGGTCCCCGGC
DNA 2: GCCGGGGACCCGGGAGGGGTCGGGAC

Tests used:
Assay in all cases: EMSA
GST-p52 (WT);GST-ETS1 = molecular target: T1, GST-p52 (WT);GST-ETS1
GST-ETS1 [1] = molecular target: T2, GST-ETS1
GST-p52 (WT) [2] = molecular target: T3, GST-p52 (WT)
GST-p52 (WT) [3] = molecular target: T3, GST-p52 (WT); remark: listed apart in the source
GST-ETS1 [4] = molecular target: T2, GST-ETS1; remark: listed apart in the source

Binder | binding result (GST-p52 (WT);GST-ETS1) | binding result (GST-ETS1 [1]) | binding result (GST-p52 (WT) [2]) | binding result (GST-p52 (WT) [3]) | binding result (GST-ETS1 [4])
B1 | binds | binds | binds | – | –
B2 | – | – | – | binds | no binding
